Reference: patent publication US20100298213A1, “Pharmaceutically Active Insulin Receptor-Modulating Molecules” (Novo Nordisk A/S, priority 2004, published 2010)
Square brackets hold non-standard residues; d marks the D form. Ends that are not written are not given here. Orn = NCCC[C@H](N)C(=O)O; Aib = CC(C)(N)C(=O)O

What follows are molecules tested against insulin receptor on mouse adipocytes (mouse, UniProt P15208 28-1372) (assay: cell-based or functional assay). Conditions: not given.
insulin receptor on mouse adipocytes, sequence (P15208 28-1372): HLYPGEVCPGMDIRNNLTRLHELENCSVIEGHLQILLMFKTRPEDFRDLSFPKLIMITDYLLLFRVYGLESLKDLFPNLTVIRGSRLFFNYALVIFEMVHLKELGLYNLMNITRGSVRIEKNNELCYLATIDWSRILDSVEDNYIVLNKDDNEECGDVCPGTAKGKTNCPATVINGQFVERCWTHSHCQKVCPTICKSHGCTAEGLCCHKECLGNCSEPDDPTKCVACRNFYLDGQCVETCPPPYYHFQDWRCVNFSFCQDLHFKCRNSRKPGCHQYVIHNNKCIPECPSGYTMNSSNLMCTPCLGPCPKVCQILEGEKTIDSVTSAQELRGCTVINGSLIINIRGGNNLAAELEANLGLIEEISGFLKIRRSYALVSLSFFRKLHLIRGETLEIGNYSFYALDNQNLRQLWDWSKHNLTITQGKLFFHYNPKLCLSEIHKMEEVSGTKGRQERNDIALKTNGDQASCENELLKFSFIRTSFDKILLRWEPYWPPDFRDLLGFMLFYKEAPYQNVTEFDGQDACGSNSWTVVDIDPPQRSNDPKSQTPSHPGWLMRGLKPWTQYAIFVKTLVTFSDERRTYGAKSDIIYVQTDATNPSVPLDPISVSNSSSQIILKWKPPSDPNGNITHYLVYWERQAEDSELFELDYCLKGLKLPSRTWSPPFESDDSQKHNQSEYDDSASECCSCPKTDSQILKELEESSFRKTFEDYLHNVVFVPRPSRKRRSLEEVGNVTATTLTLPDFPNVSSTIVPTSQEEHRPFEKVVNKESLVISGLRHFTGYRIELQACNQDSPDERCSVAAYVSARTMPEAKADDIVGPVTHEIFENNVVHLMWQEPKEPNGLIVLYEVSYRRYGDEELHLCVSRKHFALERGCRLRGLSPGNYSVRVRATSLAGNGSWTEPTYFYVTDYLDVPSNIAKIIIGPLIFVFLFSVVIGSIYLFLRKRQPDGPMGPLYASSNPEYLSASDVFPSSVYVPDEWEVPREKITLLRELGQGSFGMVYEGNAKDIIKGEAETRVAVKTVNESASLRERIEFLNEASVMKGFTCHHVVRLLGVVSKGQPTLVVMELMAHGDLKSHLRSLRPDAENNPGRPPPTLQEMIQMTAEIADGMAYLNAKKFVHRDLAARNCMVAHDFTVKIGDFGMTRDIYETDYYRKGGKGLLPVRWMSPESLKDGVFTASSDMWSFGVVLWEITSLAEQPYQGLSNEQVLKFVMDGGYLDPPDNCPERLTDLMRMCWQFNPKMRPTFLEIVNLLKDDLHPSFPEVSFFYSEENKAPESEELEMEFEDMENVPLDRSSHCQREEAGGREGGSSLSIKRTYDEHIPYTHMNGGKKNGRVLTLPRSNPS

Molecule	EC50 (FFC) [nM]	EC50 (FFC) rel. to HI [%]
SLEEEWAQVECEVYGRCPSESFYDWFERQL [682]	7.7	0.8
Ac-SLEEEWAQVECEVYGRGCPSESFYDWFERQL (cysteine pairing not given here) [699]	4.3	1.5
Ac-HLEEEWSEIQCELWGRGCPSEDFYDWFEAQLHA (cysteine pairing not given here) [620]	69	1
YEEESFYGWFERQLGEE [732]	> 2000	–
SLEEHWHQVECEVYHRHCPSESFYDWFERQL [698]	190	0.03
SLEEEWGQVECEVYGRGCPSESFYDWFERQL [681]	13	0.4
SLEEEWAQHECEVYGRGCPSESFYDWFERQL [688]	680	–
SLEEEWYQVECEVYGRGCPSESFYDWFERQL [691]	25	0.3
SLEEHWHQVECEVYGRGCPSESFYDWFERQL [697]	72	0.1
SLEEEWAQVECEVYHRGCPSESFYDWFERQL [695]	9.8	0.6
SLEEEWAQVECEVYGRFCPSESFYDWFERQL [694]	26	0.3
SLEEVWAQVECEVYGRGCPSESFYDWFERQL [690]	16	0.4
SLEEEWAQVECEVYGRHCPSESFYDWFERQL [692]	7.7	0.8
SLEEEWAQVECEVYGRVCPSESFYDWFERQL [693]	75	0.1
SLEEEWAQVECEVYGRNCPSESFYDWFERQL [683]	2.1	2.9
SLEEYWAQVECEVYGRGCPSESFYDWFERQL [689]	15	0.4
SLEEEWAQVECEVYQRGCPSESFYDWFERQL [684]	15	0.4

These molecules were tested against human IR (HIR) (Homo sapiens, UniProt P06213) (assay: Human IR affinity (Kd)). Conditions: Kd value expressed relative to that of human insulin in the same assay.
human IR (HIR), sequence (P06213 28-758 limits assumed): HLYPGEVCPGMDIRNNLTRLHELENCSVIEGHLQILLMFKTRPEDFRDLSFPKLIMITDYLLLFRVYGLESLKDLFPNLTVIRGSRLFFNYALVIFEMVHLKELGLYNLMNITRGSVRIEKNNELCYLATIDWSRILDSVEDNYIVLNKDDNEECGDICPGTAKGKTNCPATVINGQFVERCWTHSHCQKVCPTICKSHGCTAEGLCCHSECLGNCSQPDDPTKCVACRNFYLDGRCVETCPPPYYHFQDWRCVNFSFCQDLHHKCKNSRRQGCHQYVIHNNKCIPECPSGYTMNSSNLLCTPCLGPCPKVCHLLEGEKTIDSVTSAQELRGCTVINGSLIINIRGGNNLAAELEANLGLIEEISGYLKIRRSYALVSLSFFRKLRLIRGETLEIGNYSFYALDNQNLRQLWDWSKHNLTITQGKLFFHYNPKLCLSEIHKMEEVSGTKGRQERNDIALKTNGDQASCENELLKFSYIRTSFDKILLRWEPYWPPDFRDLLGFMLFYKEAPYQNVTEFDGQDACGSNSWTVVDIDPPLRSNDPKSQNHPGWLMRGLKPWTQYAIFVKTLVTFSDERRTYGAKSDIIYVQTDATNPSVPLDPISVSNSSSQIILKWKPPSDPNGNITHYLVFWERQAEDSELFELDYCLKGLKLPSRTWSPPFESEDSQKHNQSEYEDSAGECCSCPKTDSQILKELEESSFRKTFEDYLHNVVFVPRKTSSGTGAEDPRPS
human IR (HIR), sequence (P06213 763-1382 partner limits assumed): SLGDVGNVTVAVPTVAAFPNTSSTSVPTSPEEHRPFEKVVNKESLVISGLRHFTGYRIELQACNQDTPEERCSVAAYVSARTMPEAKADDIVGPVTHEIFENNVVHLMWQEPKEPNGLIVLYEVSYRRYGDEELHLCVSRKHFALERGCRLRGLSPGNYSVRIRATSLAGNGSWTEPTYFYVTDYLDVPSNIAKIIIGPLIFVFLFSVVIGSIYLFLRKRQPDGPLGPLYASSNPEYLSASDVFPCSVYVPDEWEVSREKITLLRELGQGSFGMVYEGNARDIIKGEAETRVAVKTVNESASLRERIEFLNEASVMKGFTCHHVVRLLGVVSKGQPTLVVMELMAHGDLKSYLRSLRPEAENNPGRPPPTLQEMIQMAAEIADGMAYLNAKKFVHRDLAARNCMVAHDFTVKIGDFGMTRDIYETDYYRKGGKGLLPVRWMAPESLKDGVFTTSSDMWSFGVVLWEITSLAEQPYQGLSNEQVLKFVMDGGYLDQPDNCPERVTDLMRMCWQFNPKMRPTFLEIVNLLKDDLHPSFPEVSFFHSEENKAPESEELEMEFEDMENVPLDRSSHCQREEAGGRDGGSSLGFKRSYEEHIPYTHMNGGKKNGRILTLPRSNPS
Format: binding

Molecule	Kd (HIR) rel. to HI [%]
Ac-SLE-Aib-EW-Aib-QIQCEVWGRGC-pox-FYGWFE-Aib-QLG [compound 806]	3
SLEHEWAQIQCEVWGRGCPSEPFYGWFLAQLG [compound 799]	4
Ac-SLEEEW[Aib]QIQCEVWGRGCPSESFYDWFERQL (cysteine pairing not given here) [compound 875]	12
Ac-SLEEEWAQIQCEVWG[Orn]GCPSESFYGWFERQLG (cysteine pairing not given here) [compound 805]	24
Ac-SLEEEWAQIQCEVWGRGC-pox-FYGWFERQLG [compound 802]	6
